By stoichiometry N is commonly meant the number of molecules, sites or subunits per partner or assembly.

The values that follow come from paper PMC9555707.

The assay addresses SmT1v3-R, tagless resistin-trimerized SARS-CoV-2 spike ectodomain, reference strain (SARS-CoV-2 | human) (UniProt P0DTC2). As to the kind of experiment: SEC-MALS; UPLC-SEC on a 4.6 x 300 mm Acquity BEH450 column in PBS + 0.02% Tween-20, coupled to a miniDAWN MALS detector and Optilab T-rEX refractometer; trimer and hexamer populations by molecular weight. In general terms: Size exclusion chromatography separates by hydrodynamic size, large species first.

“And” between values parts separate entries of the source, which are not always exact repeats. Equal values may be shown once.

As to “SmT1v3-R, tagless resistin-trimerized SARS-CoV-2 spike ectodomain, reference strain (from UniProt P0DTC2 14-1208; Q9HD89-1 23-108)”, the percent of the protein as hexamer turned out to be 3%; the percent of the protein as trimer turned out to be 96%; the stoichiometry N is 3 and 6.
